Results: the supplement of paper PMC11908140

B1: library; numbered along this chain (parent)
chain: MRKPRAAVGSGHRKQAASQEGRQKHAKNNSQAKPSACDGLARQPEEVVLQASVSSYHLFRDVAEVTAFRGSLLSWYDQEKRDLPWRRRAEDEMDLDRRAYAVWVSEVMLQQTQVATVINYYTGWMQKWPTLQDLASASLEEVNQLWAGLGYYSRGRRLQEGARKVVEELGGHMPRTAETLQQLLPGVGRYTAGAIASIAFGQATGVVDGNVARVLCRVRAIGADPSSTLVSQQLWGLAQQLVDPARPGDFNQAAMELGATVCTPQRPLCSQCPVESLCRARQRVEQEQLLASGSLSGSPDVEECAPNTGQCHLCLPPSEPWDQTLGVVNFPRKASRKPPREESSATCVLEQPGALGAQILLVQRPNSGLLAGLWEFPSVTWEPSEQLQRKALLQELQRWAGPLPATHLRHLGEVVHTFSHIKLTYQVYGLALEGQTPVTTVPPGARWLTQEEFHTAAVSTAMKKVFRVYQGQQPGTCMGSKRSQVSSPCSRKKPRMGQQVLDNFFRSHISTDAHSLNSAAQ

Variants of: B1
Assay: 8OG:A repair function score (normalized; synonymous = 0, nonsense = -1) (normalized log-likelihood score); higher = more repair activity (WT-like)
Details: with 8OG:A DNA repair reporter (GFP) in HEK-293 MUTYH KO cells
Method in brief: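 Lentiviral MUTYH cDNA NNN codon-scan libraries in HEK-293 MUTYH knockout cells (10 pg/ml doxycycline) were co-transfected with an 8OG:A GFP repair reporter plus mCherry. At 72 h, viable mCherry+ cells were sorted into GFP+ (repair) and GFP− bins, three replicates per tile, then tile amplicons were sequenced. Per-tile Rosace fitness scores became a normalized repair function score anchored on synonymous and nonsense distributions. Synonymous medians were set to 0 and nonsense to -1; variants under 300 counts per million at the start were removed.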

In order of falling “8OG:A repair function score” value:
1. S231K  0.154
2. Q388P  0.145
3. H410R  0.0868
4. T440K  0.0852
5. A147S  0.0618
6. L361M  0.0584
7. P338W  0.053
8. T228E  0.0521
9. W381T  0.0347
10. F505S  0.0199
11. G497W  0.0164
12. L277Y  0.014
13. G479P  0.0129
14. P474F  0.0108
15. Q386C  0.0105
16. V485D  0.0102
17. A520K  0.00969
18. G170S  0.00875
19. Q78S  0.00682
20. D91H  0.0064
21. Y56L  0.00637
22. S52R  0.00314
23. S74P  0.00278
24. V53E  0.00193
25. Q50N  0.00105
26. S294C  -0.00327
27. L58I  -0.00475
28. L501W  -0.00606
29. S294W  -0.0117
30. A101D  -0.0136
31. A63C  -0.0141
32. S343E  -0.015
33. S318C  -0.0155
34. A135S  -0.0157
35. P488A  -0.0161
36. V441L  -0.0169
37. P320T  -0.0175
38. S74F  -0.0182
39. E275Y  -0.0195
40. D82V  -0.0236
41. S318Q  -0.0273
42. K492Y  -0.0316
43. T263L  -0.0322
44. T260R  -0.0323
45. N517W  -0.0342
46. Q426A  -0.0345
47. M496I  -0.0358
48. R409A  -0.0367
49. R97Y  -0.0378
50. G201S  -0.0385
51. V284W  -0.0406
52. D322Q  -0.0416
53. Q499Y  -0.045
54. Q450C  -0.0453
55. Q450G  -0.0458
56. P306H  -0.0537
57. T308H  -0.0553
58. T460R  -0.0566
59. L95T  -0.0603
60. D82R  -0.0624
61. F330Y  -0.0696
62. T66K  -0.0706
63. P339I  -0.0749
64. T263I  -0.0749
65. Q132V  -0.0799
66. A203E  -0.0816
67. A354Q  -0.0822
68. P365W  -0.0852
69. A354S  -0.0885
70. V166Q  -0.0914
71. R283H  -0.102
72. K493Q  -0.107
73. K337M  -0.112
74. E287Q  -0.114
75. Q450S  -0.114
76. A220G  -0.13
77. S507Y  -0.141
78. E451D  -0.178
79. V114I  -0.181
80. G368R  -0.193
81. E395W  -0.193
82. S378V  -0.2
83. G356M  -0.207
84. D249E  -0.208
85. V261H  -0.25
86. E302R  -0.254
87. P264D  -0.274
88. R163W  -0.296
89. Q358W  -0.308
90. A135F  -0.316
91. V379G  -0.37
92. P244H  -0.418
93. G368P  -0.423
94. G193F  -0.465
95. R446N  -0.508
96. Y425C  -0.509
97. S459I  -0.53
98. V465N  -0.54
99. C314N  -0.553
100. W124Q  -0.557
101. L241A  -0.581
102. F250M  -0.607
103. A194G  -0.624
104. G372M  -0.639
105. H57K  -0.664
106. V362D  -0.671
107. V107Q  -0.746
108. P273W  -0.748
109. L373E  -0.788
110. A238H  -0.805
111. V230K  -0.826
112. V214N  -0.833
113. P174I  -0.9
114. F59G  -0.925
115. R86A  -0.934
116. W128S  -0.935
117. V104G  -0.976
118. K333E  -1.01
119. P84R  -1.06
120. P267W  -1.06
121. S459R  -1.13
122. C262F  -1.14
123. R154M  -1.16
124. Y76L  -1.17
125. W103N  -1.2
126. A194Y  -1.23
127. V104D  -1.33
